The values that follow are results of earlier work, collected in patent US20070014786A1, “Methods for treating taxol-induced gut disorder” (RINAT NEUROSCIENCE CORP., priority 2003, published 2007).

A word on the Kd: it is the constant that tells how readily two partners part at equilibrium.

This data set concerns the target T1, low affinity receptor (LNGFR), p75NTR or p75 (Homo sapiens, UniProt P08138).
T1 sequence (P08138 29-427): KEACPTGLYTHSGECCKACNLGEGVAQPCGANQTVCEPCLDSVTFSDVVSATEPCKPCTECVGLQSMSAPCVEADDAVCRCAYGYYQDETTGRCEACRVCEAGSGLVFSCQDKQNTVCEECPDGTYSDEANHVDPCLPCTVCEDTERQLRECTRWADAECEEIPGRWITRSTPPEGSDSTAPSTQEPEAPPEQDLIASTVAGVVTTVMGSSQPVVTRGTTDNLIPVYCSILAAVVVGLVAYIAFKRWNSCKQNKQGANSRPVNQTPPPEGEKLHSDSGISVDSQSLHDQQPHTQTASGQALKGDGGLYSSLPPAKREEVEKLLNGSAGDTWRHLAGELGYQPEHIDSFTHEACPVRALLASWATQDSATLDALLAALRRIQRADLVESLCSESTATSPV
As to conditions: according to current knowledge (background).

B1: neurotrophin-4/5 (protein, UniProt P34130 81-210, looked up)
Neurotrophin-4: GVSETAPASRRGELAVCDAVSGWVTDRRTAVDLRGREVEVLGEVPAAGGSPLRQYFFETRCKADNAEEGGPGAGGGGCRGVDRRHWVSECKAKQSYVRALTADAQGRVGWRWIRIDTACVCTLLSRTGRA
notes: neurotrophin family member
For B1, the Kd was 2 nM.

B2: brain-derived neurotrophic factor (protein, UniProt P23560 19-247, looked up)
Neurotrophic factor BDNF …: APMKEANIRGQGGLAYPGVRTHGTLESVNGPKAGSRGLTSLADTFEHVIEELLDEDQKVRPNEENNKDADLYTSRVMLSSQVPLEPPLLFLLEEYKNYLDAANMSMRVRRHSDPARRGELSVCDSISEWVTAADKKTAVDMSGGTVTVLEKVPVSKGQLKQYFYETKCNPMGYTKEGCRGIDKRHWNSQCRTTQSYVRALTMDSKKRIGWRFIRIDTSCVCTLTIKRGR
notes: neurotrophin family member
B2: the Kd was 2 nM.
